Consider 2 molecules from patent US20080317723A1, “LYMPHATIC ENDOTHELIAL CELLS MATERIALS AND METHODS” (VEGENICS LIMITED, priority 2001, published 2008).

Common to all, as to format: cell-based, human
The test system of experiment [1] is VEGFR-3 expressing lymphatic endothelial cells. Description: Serum starvation-induced apoptosis, cytoplasmic mono- and oligonucleosomes, isolated VEGFR-3 positive cells. The settings on record: for cell survival during serum starvation: VEGFR-3 expressing cells, FIG. 2B. The source says:
FIG. 2A-FIG. 2B. VEGFR-2 and VEGFR-3, but not VEGFR-1 activating ligands inhibit apoptosis of serum-deprived HMVE cells. Measurement of the cytoplasmic histone-associated DNA fragments (mono- and oligonucleosomes) in serum-starved HMVE cells consisting of two cell populations of blood vascular and lymphatic endothelial cells (FIG. 2A) or in the isolated cell populations after magnetic cell sorting using VEGFR-3 antibodies (FIG. 2B). The enrichment factor of cytoplasmic oligonucleosomes in the apoptotic cells grown for 24 h in serum-free medium (BSA) was chosen as 100 (%). Data represent mean values from three independent experiments (mean±s.d.). […] Isolation of lymphatic and blood vascular endothelial cells. […] Analysis of endothelial cell apoptosis. For the apoptosis assay, 70,000 cells per well were seeded into 24-well plates. Treatments were done in duplicates and apoptosis was detected by measuring cytoplasmic histone-associated DNA fragments using the death detection ELISA PLUS kit (Roche, Indianapolis, Ind.). […] Annexin-V-FLUOS (Roche, Indianapolis, Ind.) was used to detect phosphatidylserine on the apoptotic cells by fluorescence microscopy according to the instructions of the manufacturer. The simultaneous staining with propidium iodide (1 μg/ml) was used for discriminating possible necrotic cells.

The test system of a further experiment is VEGFR-2/EpoR. Briefly: Ba/F3 bioassay, viability (MTT) of VEGFR-2/EpoR cells. The settings on record: FIG. 1B. As to the method: FIG. 1A-FIG. 1C. Analysis of the receptor-specificities of different VEGFs using the Ba/F3 bioassay. Measurement of the viability of Ba/F3 cells expressing the chimeric receptors VEGFR-1/EpoR (FIG. 1A), VEGFR-2/EpoR (FIG. 1B) or VEGFR-3/EpoR (FIG. 1C) in the presence of different VEGFs at indicated concentrations. Cell viability was determined using the MTT assay. Data represent the mean values from triplicate assays (mean±s.d.). FIG. 1D-FIG. 1G. Biosensor analysis of the interaction of VEGF-C (FIG. 1D, FIG. 1E) and VEGF-C156S (FIG. 1F, FIG. 1G) with VEGFR-3 (FIG. 1D, FIG. 1F) and VEGFR-2 (FIG. 1E, FIG. 1G). Chimeric receptor proteins were immobilized onto a carboxymethylated dextran surface. Growth factors were injected over the surface at a flow rate of 20 μl/min at the indicated concentrations. The sensorgrams shown have been subtracted with the corresponding signal obtained when the same sample was passed over a blank control channel.
Bioassay for VEGFR stimulation. […]
VEGF is an endothelial cell mitogen which has been also shown to protect endothelial cells from starvation and TNF-a induced apoptosis via activation of VEGFR-2 (Gerber et al, J. Biol. Chem., 273:30336-30343, 1998; Spyridopoulos et al., J. Mol. Cell. Cardiol., 29:1321-1330, 1997). […] The specificities of the growth factors used were determined using a cell survival bioassay. […]

The next experiment relates to HMVE cells. Description: Boyden chamber cell migration assay. The settings on record: 6 h, VEGF 10 ng/ml, VEGF-C 500 ng/ml, VEGF-D 500 ng/ml, VEGF-C156S 3 μg/ml. The procedure:
FIG. 5. VEGFR-3 mediates endothelial cell migration. The migration of HMVE cells in the presence of different VEGFs in a Boyden chamber assay. […] Data represent mean values from three independent experiments (mean±s.d.). The growth factor concentrations used are: VEGF 10 ng/ml, VEGF-C 500 ng/ml, VEGF-D 500 ng/ml and VEGF-C156S 3 μg/ml.
Cell migration assay. Migration assays were performed in a 48-well chemotaxis Boyden chamber (Neuroprobe Inc.). Eight micron Nucleopore polycarbonate filters (Corning) were coated with 100 μg/ml of collagen type I (Upstate Biotechnology) overnight at +4° C. and air dried. The filters were placed over the lower chamber wells containing the growth factors in serum-free growth medium supplemented with 0.2% BSA. For blocking experiments, VEGF and VEGF-C156S were preincubated with a ten-fold molar excess of soluble human VEGFR-3 for 30 min. HMVE cells were suspended in the growth medium and 10,000 cells in 50 μl were added to each well in the upper chamber. The cells were allowed to migrate for 6 h at 37° C. after which the filter was fixed with cold methanol and stained with hematoxylin (Meyer). Non-migrated cells on the upper surface of the filter were removed by scraping with a cotton swab and the number of migrated cells was counted. The assays were run in quadruplicate and repeated with three different batches of HMVECs.

Setting [2] is: serum-deprived lymphatic endothelial cells.

For VEGF, the “cell survival during serum starvation” value in experiment [1] is on record as “promoted cell survival”. In addition, the “survival of VEGFR-2/EpoR expressing cells” value with VEGFR-2/EpoR is given as “able to support the survival of the VEGFR-2/EpoR expressing cells”. In the experiment on HMVE cells, the “stimulation of HMVE cell migration” value is “ten-fold stimulation of cell migration”.

B1: VEGF-C156S: VEGFR-3 specific mutant form of VEGF-C, cysteine 156 changed into serine; recombinant human (Thr103 to Ile225) (protein, UniProt P49767 103-225, looked up, variant C156S)
chain: TEETIKFAAAHYNTEILKSIDNEWRKTQCMPREVCIDVGKEFGVATNTFFKPPSVSVYRCGGCCNSEGLQCMNTSTSYLSKTLFEITVPLSQGPKPVTISFANHTSCRCMSKLDVYRQVHSII
With B1, in experiment [1], the “cell survival during serum starvation” value is on record as “induced the survival of only the VEGFR-3 positive cells”. Moreover, in experiment [1] (setting [2]), the “accumulation of oligo- and mononucleosomes” value is on record as “inhibited dose-dependently”; the “concentration at which the maximum effect was achieved (inhibition of oligo- and mononucleosome accumulation)” value worked out at 500 ng/mL. Also, the “survival of VEGFR-2/EpoR expressing cells” value in the experiment with VEGFR-2/EpoR is on record as “did not affect the survival of these cells”. The “stimulation of HMVE cell migration” value with HMVE cells is reported as “induced the migration of HMVE cells”.
